Results as given in paper PMC4865440.

Molecular target: recombinant gp120 from HIV-1 strain IIIB (HIV-1 strain IIIB) (UniProt P04578)

Substance | EC50 of whole-cell HIV neutralization assay (XTT viability of CEM-SS cells challenged with HIV-1RF), purified ^ECGRFT [nM] | EC50 of whole-cell HIV neutralization assay (XTT viability of CEM-SS cells challenged with HIV-1RF), purified ^OSGRFT [nM]
griffithsin produced in Escherichia coli (^ECGRFT) (from UniProt P84801 1-121) (natural protein) | 0.33 | –
griffithsin produced in rice endosperm (^OSGRFT), His6-tagged (from UniProt P84801 1-121) (natural protein) | – | 0.27
